Data taken from IntAct's records for PubMed 22247544.

B1: Corticotropin-releasing factor receptor 1 (Homo sapiens), P34998 (parent)
chain: MGGHPQLRLVKALLLLGLNPVSASLQDQHCESLSLASNISGLQCNASVDLIGTCWPRSPAGQLVVRPCPAFFYGVRYNTTNNGYRECLANGSWAARVNYSECQEILNEEKKSKVHYHVAVIINYLGHCISLVALLVAFVLFLRLRSIRCLRNIIHWNLISAFILRNATWFVVQLTMSPEVHQSNVGWCRLVTAAYNYFHVTNFFWMFGEGCYLHTAIVLTYSTDRLRKWMFICIGWGVPFPIIVAWAIGKLYYDNEKCWFGKRPGVYTDYIYQGPMILVLLINFIFLFNIVRILMTKLRASTTSETIQYRKAVKATLVLLPLLGITYMLFFVNPGEDEVSRVVFIYFNSFLESFQGFFVSVFYCFLNSEVRSAIRKRWHRWQDKHSIRARVARAMSIPTSPTRVSFHSIKQSTAV

Variants of: B1
Conditions: with GNAI2, P04899-1
Sequence of GNAI2, P04899-1 (P04899 whole entry): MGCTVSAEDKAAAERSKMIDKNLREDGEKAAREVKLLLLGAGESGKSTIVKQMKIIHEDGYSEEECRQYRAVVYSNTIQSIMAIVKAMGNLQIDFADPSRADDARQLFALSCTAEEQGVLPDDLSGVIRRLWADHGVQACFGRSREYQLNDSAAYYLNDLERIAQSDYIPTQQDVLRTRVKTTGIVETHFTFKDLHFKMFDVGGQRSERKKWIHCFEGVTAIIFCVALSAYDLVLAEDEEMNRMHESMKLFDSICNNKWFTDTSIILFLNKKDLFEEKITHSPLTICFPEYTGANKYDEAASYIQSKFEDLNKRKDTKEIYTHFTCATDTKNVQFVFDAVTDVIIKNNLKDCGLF

Variant	effect of a mutation on the interaction
R292A	decreasing interaction strength
K314A	decreasing interaction strength
